According to US20180355053A1 (published 2018):

B1: CD20-4GL-SIRPα (bispecific antibody)
heavy: not shown
light: QIVLSQSPAILSASPGEKVTMTCRASSSVSYIHWFQQKPGSSPKPWIYATSNLASGVPVRFSGSGSGTSYSLTISRVEAEDAATYYCQQWTSNPPTFGGGTKLEIKRTVAAPSVFIFPPSDEQLKSGTASVVCLLNNFYPREAKVQWKVDNALQSGNSQESVTEQDSKDSTYSLSSTLTLSKADYEKHKVYACEVTHQGLSSPVTKSFNRGEC
B2: SIRPα-CD20 (bispecific antibody)
heavy: not shown
light: B1 light
B3: CD20-2GL-SIRPα (bispecific antibody)
heavy: not shown
light: B1 light

Biological target: CD47-His (UniProt Q08722 19-139)
Assay: SPR (Biacore)

CD47-His, sequence (Q08722 19-139): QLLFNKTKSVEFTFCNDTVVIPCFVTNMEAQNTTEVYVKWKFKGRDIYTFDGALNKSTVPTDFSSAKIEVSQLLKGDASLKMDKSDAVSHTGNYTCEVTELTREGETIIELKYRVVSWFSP

Row | Kd | Binder
1 | 15.9 nM | B1
2 | 6.39 nM | B2
3 | 21.4 nM | B3
